What was measured:
[1] = target: antigen of Z13e1 scFv ('its antigen')
[2] = target: monomeric gp120 (HIV-1) (HIV-1); experiment: yeast display flow cytometry, gp120 titrated in the absence of sCD4, MFI of antigen binding (sandwich with biotinylated mAb and SA-PE)
[3] = target: gp120 complexed with soluble CD4 (HIV-1); experiment: yeast display flow cytometry, gp120 titrated in the presence of sCD4, MFI of antigen binding (sandwich with biotinylated mAb and SA-PE)

Row | Substance | Kd [1] [nM] | Kd [2] [nM] | Kd [3] [nM]
1 | Z13e1 scFv displayed on yeast | 50 |  | 
2 | scFv X5 displayed on yeast (X5-pPNLS in EBY100) |  | 14.5 | 1.1
